Test results as given in patent US20230093708A1, “PROTEIN NANOPARTICLE DESIGN AND APPLICATION” (Duke University, priority 2020, published 2023).
Non-standard residues stand in square brackets, D forms with d. Phe(4-N3) = [N-]=[N+]=Nc1ccc(C[C@H](N)C(=O)O)cc1

B1: RLP80-ELPV80: RLP-ELP block co-polypeptide with Val guest residue in the corona (protein)
chain: QYPSDGRGQYPSDGRGQYPSDGRGQYPSDGRGQYPSDGRGQYPSDGRGQYPSDGRGQYPSDGRGQYPSDGRGQYPSDGRGQYPSDGRGQYPSDGRGQYPSDGRGQYPSDGRGQYPSDGRGQYPSDGRGQYPSDGRGQYPSDGRGQYPSDGRGQYPSDGRGQYPSDGRGQYPSDGRGQYPSDGRGQYPSDGRGQYPSDGRGQYPSDGRGQYPSDGRGQYPSDGRGQYPSDGRGQYPSDGRGQYPSDGRGQYPSDGRGQYPSDGRGQYPSDGRGQYPSDGRGQYPSDGRGQYPSDGRGQYPSDGRGQYPSDGRGQYPSDGRGQYPSDGRGQYPSDGRGQYPSDGRGQYPSDGRGQYPSDGRGQYPSDGRGQYPSDGRGQYPSDGRGQYPSDGRGQYPSDGRGQYPSDGRGQYPSDGRGQYPSDGRGQYPSDGRGQYPSDGRGQYPSDGRGQYPSDGRGQYPSDGRGQYPSDGRGQYPSDGRGQYPSDGRGQYPSDGRGQYPSDGRGQYPSDGRGQYPSDGRGQYPSDGRGQYPSDGRGQYPSDGRGQYPSDGRGQYPSDGRGQYPSDGRGQYPSDGRGQYPSDGRGQYPSDGRGQYPSDGRGQYPSDGRGQYPSDGRGQYPSDGRGQYPSDGRGQYPSDGRGGVGVPGVGVPGVGVPGVGVPGVGVPGVGVPGVGVPGVGVPGVGVPGVGVPGVGVPGVGVPGVGVPGVGVPGVGVPGVGVPGVGVPGVGVPGVGVPGVGVPGVGVPGVGVPGVGVPGVGVPGVGVPGVGVPGVGVPGVGVPGVGVPGVGVPGVGVPGVGVPGVGVPGVGVPGVGVPGVGVPGVGVPGVGVPGVGVPGVGVPGVGVPGVGVPGVGVPGVGVPGVGVPGVGVPGVGVPGVGVPGVGVPGVGVPGVGVPGVGVPGVGVPGVGVPGVGVPGVGVPGVGVPGVGVPGVGVPGVGVPGVGVPGVGVPGVGVPGVGVPGVGVPGVGVPGVGVPGVGVPGVGVPGVGVPGVGVPGVGVPGVGVPGVGVPGVGVPGVGVPGVGVPGVGVPGVGVPGVGVP
B2: RLP80-ELPS80: RLP-ELP block co-polypeptide with Ser guest residue in the corona (protein)
chain: QYPSDGRGQYPSDGRGQYPSDGRGQYPSDGRGQYPSDGRGQYPSDGRGQYPSDGRGQYPSDGRGQYPSDGRGQYPSDGRGQYPSDGRGQYPSDGRGQYPSDGRGQYPSDGRGQYPSDGRGQYPSDGRGQYPSDGRGQYPSDGRGQYPSDGRGQYPSDGRGQYPSDGRGQYPSDGRGQYPSDGRGQYPSDGRGQYPSDGRGQYPSDGRGQYPSDGRGQYPSDGRGQYPSDGRGQYPSDGRGQYPSDGRGQYPSDGRGQYPSDGRGQYPSDGRGQYPSDGRGQYPSDGRGQYPSDGRGQYPSDGRGQYPSDGRGQYPSDGRGQYPSDGRGQYPSDGRGQYPSDGRGQYPSDGRGQYPSDGRGQYPSDGRGQYPSDGRGQYPSDGRGQYPSDGRGQYPSDGRGQYPSDGRGQYPSDGRGQYPSDGRGQYPSDGRGQYPSDGRGQYPSDGRGQYPSDGRGQYPSDGRGQYPSDGRGQYPSDGRGQYPSDGRGQYPSDGRGQYPSDGRGQYPSDGRGQYPSDGRGQYPSDGRGQYPSDGRGQYPSDGRGQYPSDGRGQYPSDGRGQYPSDGRGQYPSDGRGQYPSDGRGQYPSDGRGQYPSDGRGQYPSDGRGQYPSDGRGQYPSDGRGQYPSDGRGQYPSDGRGGSGVPGSGVPGSGVPGSGVPGSGVPGSGVPGSGVPGSGVPGSGVPGSGVPGSGVPGSGVPGSGVPGSGVPGSGVPGSGVPGSGVPGSGVPGSGVPGSGVPGSGVPGSGVPGSGVPGSGVPGSGVPGSGVPGSGVPGSGVPGSGVPGSGVPGSGVPGSGVPGSGVPGSGVPGSGVPGSGVPGSGVPGSGVPGSGVPGSGVPGSGVPGSGVPGSGVPGSGVPGSGVPGSGVPGSGVPGSGVPGSGVPGSGVPGSGVPGSGVPGSGVPGSGVPGSGVPGSGVPGSGVPGSGVPGSGVPGSGVPGSGVPGSGVPGSGVPGSGVPGSGVPGSGVPGSGVPGSGVPGSGVPGSGVPGSGVPGSGVPGSGVPGSGVPGSGVPGSGVPGSGVPGSGVPGSGVPGSGVP
B3: UAA5-40: pAzF-containing sphere-forming diblock construct (protein)
chain: QYPSDGRGQYPSDGRGQYPSDGRGQYPSDGRGQYPSDGRGQYPSDGRGQYPSDGRGQYPSDGRGQYPSDGRGQYPSDGRGQYPSDGRGQYPSDGRGQYPSDGRGQYPSDGRGQYPSDGRGQYPSDGRGQYPSDGRGQYPSDGRGQYPSDGRGQYPSDGRG[Phe(4-N3)]QYPSDGRGQYPSDGRGQYPSDGRGQYPSDGRGQYPSDGRGQYPSDGRGQYPSDGRGQYPSDGRGQYPSDGRGQYPSDGRGQYPSDGRGQYPSDGRGQYPSDGRGQYPSDGRGQYPSDGRGQYPSDGRGQYPSDGRGQYPSDGRGQYPSDGRGQYPSDGRG[Phe(4-N3)]QYPSDGRGQYPSDGRGQYPSDGRGQYPSDGRGQYPSDGRGQYPSDGRGQYPSDGRGQYPSDGRGQYPSDGRGQYPSDGRGQYPSDGRGQYPSDGRGQYPSDGRGQYPSDGRGQYPSDGRGQYPSDGRGQYPSDGRGQYPSDGRGQYPSDGRGQYPSDGRG[Phe(4-N3)]QYPSDGRGQYPSDGRGQYPSDGRGQYPSDGRGQYPSDGRGQYPSDGRGQYPSDGRGQYPSDGRGQYPSDGRGQYPSDGRGQYPSDGRGQYPSDGRGQYPSDGRGQYPSDGRGQYPSDGRGQYPSDGRGQYPSDGRGQYPSDGRGQYPSDGRGQYPSDGRG[Phe(4-N3)]
B4: RLP40-ELPS80: RLP-ELP block co-polypeptide with Ser guest residue in the corona (protein)
chain: QYPSDGRGQYPSDGRGQYPSDGRGQYPSDGRGQYPSDGRGQYPSDGRGQYPSDGRGQYPSDGRGQYPSDGRGQYPSDGRGQYPSDGRGQYPSDGRGQYPSDGRGQYPSDGRGQYPSDGRGQYPSDGRGQYPSDGRGQYPSDGRGQYPSDGRGQYPSDGRGQYPSDGRGQYPSDGRGQYPSDGRGQYPSDGRGQYPSDGRGQYPSDGRGQYPSDGRGQYPSDGRGQYPSDGRGQYPSDGRGQYPSDGRGQYPSDGRGQYPSDGRGQYPSDGRGQYPSDGRGQYPSDGRGQYPSDGRGQYPSDGRGQYPSDGRGQYPSDGRGGSGVPGSGVPGSGVPGSGVPGSGVPGSGVPGSGVPGSGVPGSGVPGSGVPGSGVPGSGVPGSGVPGSGVPGSGVPGSGVPGSGVPGSGVPGSGVPGSGVPGSGVPGSGVPGSGVPGSGVPGSGVPGSGVPGSGVPGSGVPGSGVPGSGVPGSGVPGSGVPGSGVPGSGVPGSGVPGSGVPGSGVPGSGVPGSGVPGSGVPGSGVPGSGVPGSGVPGSGVPGSGVPGSGVPGSGVPGSGVPGSGVPGSGVPGSGVPGSGVPGSGVPGSGVPGSGVPGSGVPGSGVPGSGVPGSGVPGSGVPGSGVPGSGVPGSGVPGSGVPGSGVPGSGVPGSGVPGSGVPGSGVPGSGVPGSGVPGSGVPGSGVPGSGVPGSGVPGSGVPGSGVPGSGVPGSGVPGSGVP
B5: UAA2-40: pAzF-containing sphere-forming diblock construct, two pAzF residues per polypeptide chain (protein)
chain: QYPSDGRGQYPSDGRGQYPSDGRGQYPSDGRGQYPSDGRGQYPSDGRGQYPSDGRGQYPSDGRGQYPSDGRGQYPSDGRGQYPSDGRGQYPSDGRGQYPSDGRGQYPSDGRGQYPSDGRGQYPSDGRGQYPSDGRGQYPSDGRGQYPSDGRGQYPSDGRG[Phe(4-N3)]QYPSDGRGQYPSDGRGQYPSDGRGQYPSDGRGQYPSDGRGQYPSDGRGQYPSDGRGQYPSDGRGQYPSDGRGQYPSDGRGQYPSDGRGQYPSDGRGQYPSDGRGQYPSDGRGQYPSDGRGQYPSDGRGQYPSDGRGQYPSDGRGQYPSDGRGQYPSDGRG[Phe(4-N3)]

Legend:
Type in all cases: physicochemical
[1] = Cryo-TEM micelle core size, inter-core spacing and aspect ratio; details: Table 6, mean ± standard deviation; for Spacing (nm): inter-core spacing
Procedure, shortened: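 Vitrified 10 μM RLPn-ELP80 (3 s blot, chamber at 15° C., 100% humidity) imaged by cryo-TEM at 80 keV. Core size and spacing measured manually on at least 25 particles; aspect ratio from the longest straight line of a particle and its perpendicular.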

[2] = Static and dynamic light scattering (SLS/DLS) of block co-polypeptides; details: Table 5; for Nagg / Rg(nm) / Rh (nm): 10 μM in PBS, 15 °C; for ρ: shape factor Rg/Rh
Procedure, shortened: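 Samples at 10 μM in PBS (140 mM NaCl, 10 mM phosphate, 3 mM KCl, pH 7.4), filtered 0.45 μm, measured at 15 °C over 30°–150° in 5° steps. Rh from cumulant fit of DLS, extrapolated to zero angle. Rg and MW from partial Zimm plots of SLS.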

[3] = DLS of native and crosslinked pAzF diblock constructs in PBS and GuHCl; details: for hydrodynamic radius (DLS): Table 12, crosslinked UAA5-40-K8D4 ligand constructs
Text: We wanted to thoroughly investigate the effects of pAzF-introduction as well as nanoparticle crosslinking on nanoparticle self-assembly. For this, we started by characterizing solely our five different ELP/RLP diblock architectures without any C-terminal functionalization. After expression and purification of the diblock constructs using ITC, the pAzF-containing constructs were crosslinked in solution by exposure to UV irradiation and characterized using dynamic light scattering (DLS). […] Generally, both processes seem to have increased the measured radii with this effect being more pronounced for the worm-forming constructs.
Apart from changes in nanoparticle morphology we were particularly interested in the effect pAzF-crosslinking had on their stability. […] GuHCl is a well-known denaturing agent that disrupts any inter- and intramolecular electrostatic forces and completely breaks down the quaternary, tertiary and secondary structure of most known proteins. Covalent bonds—such as the ones formed by pAzF-crosslinking—however remain unaffected by GuHCl, thus, the addition of this denaturing agent was expected to give us insights on the stability of our crosslinked nanoparticles. […] All native samples on the other hand resorted to complete unimerization upon exposure to GuHCl. As the Rh values for the crosslinked particles in GuHCl were generally larger than in PBS, the DLS data furthermore indicates a swelling behavior in the presence of the denaturing agent. This can most probably be attributed to the RLP core which is assumed to be completely collapsed in PBS but will however try to reach an elongated, random-coil morphology in the presence of GuHCl.
The first step of the characterization process was to produce crosslinked particles for the functionalized diblock constructs and to analyze whether the attachment of the ligands had caused any significant changes in particle size. […] Whatever the reason was, it had no effect on the crosslinking process as the particles still remained stable after GuHCl exposure.
Dynamic light scattering of cross-linkable protein nanoparticles was performed. […] However, these crosslinked particles remain assembled, actually growing slightly in size due to chain swelling of the core and corona in this new buffer. These novel scaffolds support various targeting domains and assemble into nearly identically sized nanoparticles between […] in hydrodynamic radius.

[4] = 15 μm in 7.2M GuHCl, crosslinked
[5] = 15 μm in 7.2M GuHCl, native (not crosslinked)
[6] = 15 μm in PBS, native (not crosslinked)

Molecule	Spacing (nm) [1] [nm]	Core radius (nm) [1] [nm]	Nagg [2]	Rg(nm) [2] [nm]	Rh (nm) [2] [nm]	ρ [2]	RH (nm) [3, 4] [nm]	RH (nm) [3, 5] [nm]	RH (nm) ([3]; 15 μm in PBS, crosslinked)	RH (nm) [3, 6] [nm]	RH (nm) ([3]; Table 11, crosslinked UAA5-40-K8D4-ligand constructs, 0.7 μM in 7.2M GuHCl)	RH (nm) ([3]; Table 11, crosslinked UAA5-40-K8D4-ligand constructs, 7 μM in PBS)	hydrodynamic radius (DLS) ([3]; 0.7 μM in 7.2M GuHCl)	hydrodynamic radius (DLS) ([3]; 7 μM in PBS)
B1	29.6 ± 3.8	14.2 ± 2.4	693	94.4	71.0	1.31	–	–	–	–	–	–	–	–
B2	27.9 ± 4.0	14.6 ± 2.2	392	36.0	49.4	0.73	–	–	–	–	–	–	–	–
B3	–	–	–	–	–	–	52.1 ± 1.0	5.9 ± 1.6	34.3 ± 0.3	29.8 ± 0.2	52.1 ± 1.0	34.3 ± 0.3	52.1 ± 1.0	34.3 ± 0.3
B4	20.0 ± 2.6	13.1 ± 2.7	80	27.2	33.0	0.82	–	–	–	–	–	–	–	–
B5	–	–	–	–	–	–	54.1 ± 2.0	7.0 ± 1.1	29.8 ± 0.3	28.1 ± 0.2	–	–	–	–
